# Measured values taken from patent US20210032299A1 (Eli Lilly, published 2021).
# Starred links: 1 amine or outer side, 2 acyl side, 3 side chain; linkers in the order of their positions; H or OH if unused. Non-standard residues stand in square brackets, D forms with d. Groups on a side chain read outwards from the residue. No end group written: not given here. *: point of attachment. C20 diacid = O=C(O)CCCCCCCCCCCCCCCCCCC(=O)*; C18 diacid = O=C(O)CCCCCCCCCCCCCCCCC(=O)*; αMePhe(2-F) = C[C@](N)(Cc1ccccc1F)C(=O)O; γGlu = O=C(O)[C@H](CCC(=O)[*:2])N[*:1]; αMeF = C[C@](N)(Cc1ccccc1)C(=O)O; 4Pal = N[C@@H](Cc1ccncc1)C(=O)O; αMeL = CC(C)C[C@](C)(N)C(=O)O; AEEA = NCCOCCOCC(=O)O; Aib = CC(C)(N)C(=O)O
# T1: human glucose-dependent insulinotropic peptide receptor (human, UniProt P48546 22-466)
# T1 sequence (looked up): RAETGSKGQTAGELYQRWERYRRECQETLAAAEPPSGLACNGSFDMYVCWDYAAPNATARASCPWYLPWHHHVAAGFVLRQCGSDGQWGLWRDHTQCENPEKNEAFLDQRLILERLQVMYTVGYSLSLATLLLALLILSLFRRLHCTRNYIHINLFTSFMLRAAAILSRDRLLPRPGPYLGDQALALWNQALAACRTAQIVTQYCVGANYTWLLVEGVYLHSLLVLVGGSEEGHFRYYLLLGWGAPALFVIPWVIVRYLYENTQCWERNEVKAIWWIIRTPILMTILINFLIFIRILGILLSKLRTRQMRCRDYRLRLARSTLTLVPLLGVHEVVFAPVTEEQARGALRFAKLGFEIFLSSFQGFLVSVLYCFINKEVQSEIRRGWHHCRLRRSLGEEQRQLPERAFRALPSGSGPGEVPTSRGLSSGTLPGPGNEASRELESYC
# B1: Example 48 (peptide)
# peptide: Y[Aib]EGTFISDYSI[αMeL]LDKK([AEEA-AEEA-γGlu-C20 diacid])HQ[Aib]DFVE[4Pal]LLAGGPSSGAPPPS-NH2
# modifications: N-terminus assumed
# SMILES: CC[C@H](C)[C@H](NC(=O)[C@H](Cc1ccccc1)NC(=O)[C@@H](NC(=O)CNC(=O)[C@H](CCC(=O)O)NC(=O)C(C)(C)NC(=O)[C@@H](N)Cc1ccc(O)cc1)[C@@H](C)O)C(=O)N[C@@H](CO)C(=O)N[C@@H](CC(=O)O)C(=O)N[C@@H](Cc1ccc(O)cc1)C(=O)N[C@@H](CO)C(=O)N[C@H](C(=O)N[C@@](C)(CC(C)C)C(=O)N[C@@H](CC(C)C)C(=O)N[C@@H](CC(=O)O)C(=O)N[C@@H](CCCCN)C(=O)N[C@@H](CCCCNC(=O)COCCOCCNC(=O)COCCOCCNC(=O)CC[C@H](NC(=O)CCCCCCCCCCCCCCCCCCC(=O)O)C(=O)O)C(=O)N[C@@H](Cc1c[nH]cn1)C(=O)N[C@@H](CCC(N)=O)C(=O)NC(C)(C)C(=O)N[C@@H](CC(=O)O)C(=O)N[C@@H](Cc1ccccc1)C(=O)N[C@H](C(=O)N[C@@H](CCC(=O)O)C(=O)N[C@@H](Cc1ccncc1)C(=O)N[C@@H](CC(C)C)C(=O)N[C@@H](CC(C)C)C(=O)N[C@@H](C)C(=O)NCC(=O)NCC(=O)N1CCC[C@H]1C(=O)N[C@@H](CO)C(=O)N[C@@H](CO)C(=O)NCC(=O)N[C@@H](C)C(=O)N1CCC[C@H]1C(=O)N1CCC[C@H]1C(=O)N1CCC[C@H]1C(=O)N[C@@H](CO)C(N)=O)C(C)C)[C@@H](C)CC
# B2: Example 49 (peptide)
# peptide: Y[Aib]EGTFISDYSI[αMeL]LDKK([AEEA-AEEA-γGlu-C18 diacid])HQ[Aib]DFVE[4Pal]LLAGGPSSGAPPPS-NH2
# modifications: N-terminus assumed
# SMILES: CC[C@H](C)[C@H](NC(=O)[C@H](Cc1ccccc1)NC(=O)[C@@H](NC(=O)CNC(=O)[C@H](CCC(=O)O)NC(=O)C(C)(C)NC(=O)[C@@H](N)Cc1ccc(O)cc1)[C@@H](C)O)C(=O)N[C@@H](CO)C(=O)N[C@@H](CC(=O)O)C(=O)N[C@@H](Cc1ccc(O)cc1)C(=O)N[C@@H](CO)C(=O)N[C@H](C(=O)N[C@@](C)(CC(C)C)C(=O)N[C@@H](CC(C)C)C(=O)N[C@@H](CC(=O)O)C(=O)N[C@@H](CCCCN)C(=O)N[C@@H](CCCCNC(=O)COCCOCCNC(=O)COCCOCCNC(=O)CC[C@H](NC(=O)CCCCCCCCCCCCCCCCC(=O)O)C(=O)O)C(=O)N[C@@H](Cc1c[nH]cn1)C(=O)N[C@@H](CCC(N)=O)C(=O)NC(C)(C)C(=O)N[C@@H](CC(=O)O)C(=O)N[C@@H](Cc1ccccc1)C(=O)N[C@H](C(=O)N[C@@H](CCC(=O)O)C(=O)N[C@@H](Cc1ccncc1)C(=O)N[C@@H](CC(C)C)C(=O)N[C@@H](CC(C)C)C(=O)N[C@@H](C)C(=O)NCC(=O)NCC(=O)N1CCC[C@H]1C(=O)N[C@@H](CO)C(=O)N[C@@H](CO)C(=O)NCC(=O)N[C@@H](C)C(=O)N1CCC[C@H]1C(=O)N1CCC[C@H]1C(=O)N1CCC[C@H]1C(=O)N[C@@H](CO)C(N)=O)C(C)C)[C@@H](C)CC
# B3: Example 50 (peptide)
# peptide: Y[Aib]EGT[αMeF]ISDYSI[αMeL]LDKK([AEEA-AEEA-γGlu-C20 diacid])HQ[Aib]DFVE[4Pal]LLAGGPSSGAPPPS-NH2
# modifications: N-terminus assumed
# SMILES: CC[C@H](C)[C@H](NC(=O)[C@H](CO)NC(=O)[C@H](Cc1ccc(O)cc1)NC(=O)[C@H](CC(=O)O)NC(=O)[C@H](CO)NC(=O)[C@@H](NC(=O)[C@](C)(Cc1ccccc1)NC(=O)[C@@H](NC(=O)CNC(=O)[C@H](CCC(=O)O)NC(=O)C(C)(C)NC(=O)[C@@H](N)Cc1ccc(O)cc1)[C@@H](C)O)[C@@H](C)CC)C(=O)N[C@@](C)(CC(C)C)C(=O)N[C@@H](CC(C)C)C(=O)N[C@@H](CC(=O)O)C(=O)N[C@@H](CCCCN)C(=O)N[C@@H](CCCCNC(=O)COCCOCCNC(=O)COCCOCCNC(=O)CC[C@H](NC(=O)CCCCCCCCCCCCCCCCCCC(=O)O)C(=O)O)C(=O)N[C@@H](Cc1c[nH]cn1)C(=O)N[C@@H](CCC(N)=O)C(=O)NC(C)(C)C(=O)N[C@@H](CC(=O)O)C(=O)N[C@@H](Cc1ccccc1)C(=O)N[C@H](C(=O)N[C@@H](CCC(=O)O)C(=O)N[C@@H](Cc1ccncc1)C(=O)N[C@@H](CC(C)C)C(=O)N[C@@H](CC(C)C)C(=O)N[C@@H](C)C(=O)NCC(=O)NCC(=O)N1CCC[C@H]1C(=O)N[C@@H](CO)C(=O)N[C@@H](CO)C(=O)NCC(=O)N[C@@H](C)C(=O)N1CCC[C@H]1C(=O)N1CCC[C@H]1C(=O)N1CCC[C@H]1C(=O)N[C@@H](CO)C(N)=O)C(C)C
# B4: Example 51 (peptide)
# peptide: Y[Aib]EGT[αMePhe(2-F)]ISDYSI[αMeL]LDKK([AEEA-AEEA-γGlu-C20 diacid])HQ[Aib]DFVE[4Pal]LLAGGPSSGAPPPS-NH2
# modifications: N-terminus assumed
# SMILES: CC[C@H](C)[C@H](NC(=O)[C@H](CO)NC(=O)[C@H](Cc1ccc(O)cc1)NC(=O)[C@H](CC(=O)O)NC(=O)[C@H](CO)NC(=O)[C@@H](NC(=O)[C@](C)(Cc1ccccc1F)NC(=O)[C@@H](NC(=O)CNC(=O)[C@H](CCC(=O)O)NC(=O)C(C)(C)NC(=O)[C@@H](N)Cc1ccc(O)cc1)[C@@H](C)O)[C@@H](C)CC)C(=O)N[C@@](C)(CC(C)C)C(=O)N[C@@H](CC(C)C)C(=O)N[C@@H](CC(=O)O)C(=O)N[C@@H](CCCCN)C(=O)N[C@@H](CCCCNC(=O)COCCOCCNC(=O)COCCOCCNC(=O)CC[C@H](NC(=O)CCCCCCCCCCCCCCCCCCC(=O)O)C(=O)O)C(=O)N[C@@H](Cc1c[nH]cn1)C(=O)N[C@@H](CCC(N)=O)C(=O)NC(C)(C)C(=O)N[C@@H](CC(=O)O)C(=O)N[C@@H](Cc1ccccc1)C(=O)N[C@H](C(=O)N[C@@H](CCC(=O)O)C(=O)N[C@@H](Cc1ccncc1)C(=O)N[C@@H](CC(C)C)C(=O)N[C@@H](CC(C)C)C(=O)N[C@@H](C)C(=O)NCC(=O)NCC(=O)N1CCC[C@H]1C(=O)N[C@@H](CO)C(=O)N[C@@H](CO)C(=O)NCC(=O)N[C@@H](C)C(=O)N1CCC[C@H]1C(=O)N1CCC[C@H]1C(=O)N1CCC[C@H]1C(=O)N[C@@H](CO)C(N)=O)C(C)C
# B5: Example 52 (peptide)
# peptide: Y[Aib]EGTFISDYSI[αMeL]LDKK([AEEA-AEEA-γGlu-C20 diacid])HQ[Aib]EFVE[4Pal]LLAGGPSSGAPPPS-NH2
# modifications: N-terminus assumed
# SMILES: CC[C@H](C)[C@H](NC(=O)[C@H](Cc1ccccc1)NC(=O)[C@@H](NC(=O)CNC(=O)[C@H](CCC(=O)O)NC(=O)C(C)(C)NC(=O)[C@@H](N)Cc1ccc(O)cc1)[C@@H](C)O)C(=O)N[C@@H](CO)C(=O)N[C@@H](CC(=O)O)C(=O)N[C@@H](Cc1ccc(O)cc1)C(=O)N[C@@H](CO)C(=O)N[C@H](C(=O)N[C@@](C)(CC(C)C)C(=O)N[C@@H](CC(C)C)C(=O)N[C@@H](CC(=O)O)C(=O)N[C@@H](CCCCN)C(=O)N[C@@H](CCCCNC(=O)COCCOCCNC(=O)COCCOCCNC(=O)CC[C@H](NC(=O)CCCCCCCCCCCCCCCCCCC(=O)O)C(=O)O)C(=O)N[C@@H](Cc1c[nH]cn1)C(=O)N[C@@H](CCC(N)=O)C(=O)NC(C)(C)C(=O)N[C@@H](CCC(=O)O)C(=O)N[C@@H](Cc1ccccc1)C(=O)N[C@H](C(=O)N[C@@H](CCC(=O)O)C(=O)N[C@@H](Cc1ccncc1)C(=O)N[C@@H](CC(C)C)C(=O)N[C@@H](CC(C)C)C(=O)N[C@@H](C)C(=O)NCC(=O)NCC(=O)N1CCC[C@H]1C(=O)N[C@@H](CO)C(=O)N[C@@H](CO)C(=O)NCC(=O)N[C@@H](C)C(=O)N1CCC[C@H]1C(=O)N1CCC[C@H]1C(=O)N1CCC[C@H]1C(=O)N[C@@H](CO)C(N)=O)C(C)C)[C@@H](C)CC
# B6: Example 53 (peptide)
# peptide: Y[Aib]EGTFISDYSI[αMeL]LDKK([AEEA-AEEA-γGlu-C20 diacid])HQ[Aib]DFVEYLLAGGPSSGAPPPS-NH2
# modifications: N-terminus assumed
# SMILES: CC[C@H](C)[C@H](NC(=O)[C@H](Cc1ccccc1)NC(=O)[C@@H](NC(=O)CNC(=O)[C@H](CCC(=O)O)NC(=O)C(C)(C)NC(=O)[C@@H](N)Cc1ccc(O)cc1)[C@@H](C)O)C(=O)N[C@@H](CO)C(=O)N[C@@H](CC(=O)O)C(=O)N[C@@H](Cc1ccc(O)cc1)C(=O)N[C@@H](CO)C(=O)N[C@H](C(=O)N[C@@](C)(CC(C)C)C(=O)N[C@@H](CC(C)C)C(=O)N[C@@H](CC(=O)O)C(=O)N[C@@H](CCCCN)C(=O)N[C@@H](CCCCNC(=O)COCCOCCNC(=O)COCCOCCNC(=O)CC[C@H](NC(=O)CCCCCCCCCCCCCCCCCCC(=O)O)C(=O)O)C(=O)N[C@@H](Cc1c[nH]cn1)C(=O)N[C@@H](CCC(N)=O)C(=O)NC(C)(C)C(=O)N[C@@H](CC(=O)O)C(=O)N[C@@H](Cc1ccccc1)C(=O)N[C@H](C(=O)N[C@@H](CCC(=O)O)C(=O)N[C@@H](Cc1ccc(O)cc1)C(=O)N[C@@H](CC(C)C)C(=O)N[C@@H](CC(C)C)C(=O)N[C@@H](C)C(=O)NCC(=O)NCC(=O)N1CCC[C@H]1C(=O)N[C@@H](CO)C(=O)N[C@@H](CO)C(=O)NCC(=O)N[C@@H](C)C(=O)N1CCC[C@H]1C(=O)N1CCC[C@H]1C(=O)N1CCC[C@H]1C(=O)N[C@@H](CO)C(N)=O)C(C)C)[C@@H](C)CC
# How the values were obtained:
# Assay in all cases: cell-based or functional assay
# [1] = biological target: human glucagon receptor (human, UniProt P47871 26-477)
# [2] = biological target: T1, human glucose-dependent insulinotropic …
# [3] = biological target: human GLP-1 receptor (human, UniProt P43220 24-463)
# Sequence of human glucagon receptor (P47871 26-477): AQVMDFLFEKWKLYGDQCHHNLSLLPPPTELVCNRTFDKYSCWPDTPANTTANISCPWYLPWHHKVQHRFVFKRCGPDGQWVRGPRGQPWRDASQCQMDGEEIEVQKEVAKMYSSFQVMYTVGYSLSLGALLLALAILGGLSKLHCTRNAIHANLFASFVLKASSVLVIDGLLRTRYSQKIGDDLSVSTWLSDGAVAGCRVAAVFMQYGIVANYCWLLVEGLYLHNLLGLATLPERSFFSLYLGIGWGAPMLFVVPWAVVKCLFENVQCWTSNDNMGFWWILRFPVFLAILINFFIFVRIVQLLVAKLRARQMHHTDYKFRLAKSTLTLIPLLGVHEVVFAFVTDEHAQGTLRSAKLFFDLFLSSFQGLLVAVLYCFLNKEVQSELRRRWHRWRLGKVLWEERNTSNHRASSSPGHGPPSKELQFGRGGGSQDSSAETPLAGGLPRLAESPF
Binder,hGcgR cAMP Rel EC50 [1],hGIPR cAMP Rel EC50 [2],hGLP1R cAMP Rel EC50 [3]
B1,1360 nM,0.0166 nM,> 5000 nM
B2,2860 nM,0.0156 nM,> 5000 nM
B3,371 nM,0.0212 nM,41 nM
B4,308 nM,0.0166 nM,24.7 nM
B5,337 nM,0.0194 nM,> 5000 nM
B6,344 nM,0.0194 nM,> 5000 nM
